System: K4 kissing-loop RNA reporter
Assay: apparent KD of K4 kissing-loop reporter; higher = weaker reporter binding
Settings: Eterna round: R107
Description: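 RNA-MaP round R107: designed RNA switches with theophylline, tryptophan, arginine or FMN aptamers are transcribed on-chip within common flanks. They are titrated with a labelled K4 kissing-loop RNA reporter in RNA-MaP buffer (100 mM Tris pH 7.5, 80 mM KCl, 4 mM MgCl2), without ligand or with the indicated ligand. Median apparent KD per design.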

[1] = input ligand: theophylline 20 uM
[2] = input ligand: tryptophan 2.4 mM
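Further: bound reporter read as fluorescence of individual clusters on recovered sequencing chips by microscopy, with normalized cluster intensities fitted with a binding model.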

CUCCUUGGCUAAGGAUAUCGUAGUGAUGUUAUGGUCUUUGCUAAGACUUCUGAUAUUGAAUUCCGACGAGAAGGUAGAAGGACGG [theeternabot_exclusion_KL_FMN_B_18]
apparent KD of K4 kissing-loop reporter (input ligand: FMN 200 uM): 817 nM | apparent KD of K4 kissing-loop reporter (input ligand: arginine 13.2 mM): 690 nM | apparent KD of K4 kissing-loop reporter (input ligand: none): 835 nM | apparent KD of K4 kissing-loop reporter [1]: 745 nM | apparent KD of K4 kissing-loop reporter [2]: 626 nM

CGCCAGGGUGAAGGAUAUCCGUCUGAUUGAGCGCAGUGAUGUUGCGCGAUUCGUUCAUCGCUCGGAGGAGAAGGUCAGAUAACUC [theeternabot_sameState_KL_FMN_B_3]
apparent KD of K4 kissing-loop reporter (input ligand: FMN 200 uM): 127 nM | apparent KD of K4 kissing-loop reporter (input ligand: arginine 13.2 mM): 121 nM | apparent KD of K4 kissing-loop reporter (input ligand: none): 121 nM | apparent KD of K4 kissing-loop reporter [1]: 121 nM | apparent KD of K4 kissing-loop reporter [2]: 112 nM

GAGGCCAGACUGAGUGAUGUUUAGUAUGAUACCAGUAUCGAAGGAUACCCUUGGCAGCAUGCCACGGCCUCGGCGGGAAACCGCC
apparent KD of K4 kissing-loop reporter (input ligand: FMN 200 uM): 746 nM | apparent KD of K4 kissing-loop reporter (input ligand: arginine 13.2 mM): 663 nM | apparent KD of K4 kissing-loop reporter (input ligand: none): 1000 nM | apparent KD of K4 kissing-loop reporter [1]: 714 nM | apparent KD of K4 kissing-loop reporter [2]: 876 nM

AGCGUCUGAAGAGGAUAUGACCAGUGAUGUUGGUUACUACCUCAAAUUAGUGUCUCGUCAAAAUCGUCAGAAGGCUUCGACGAGC [#09 K4 FMN B Exclusion]
apparent KD of K4 kissing-loop reporter (input ligand: FMN 200 uM): 122 nM | apparent KD of K4 kissing-loop reporter (input ligand: arginine 13.2 mM): 96.2 nM | apparent KD of K4 kissing-loop reporter (input ligand: none): 95.7 nM | apparent KD of K4 kissing-loop reporter [1]: 92.8 nM | apparent KD of K4 kissing-loop reporter [2]: 91.2 nM

GCAGUGAUGUUGCACGAGUAGGCUAGAGUACGAGGACCGGUACGGCCGCCACUCGUACGGAAGUCGCUAAUUUAUGGAAUGGUGA [#05 K4 Tryptophan A Same State]
apparent KD of K4 kissing-loop reporter (input ligand: FMN 200 uM): 713 nM | apparent KD of K4 kissing-loop reporter (input ligand: arginine 13.2 mM): 473 nM | apparent KD of K4 kissing-loop reporter (input ligand: none): 548 nM | apparent KD of K4 kissing-loop reporter [1]: 455 nM | apparent KD of K4 kissing-loop reporter [2]: 435 nM

UGAUACCAGACGGCCGCCACUGCACCAGUCAAUGACUGAGUGUGGUAAUGCUCAGUGAUGUUGAGUAGGACCGGGUCUGGUAUCU [Mod of Eli's TrypBX 8 v2]
apparent KD of K4 kissing-loop reporter (input ligand: FMN 200 uM): 135 nM | apparent KD of K4 kissing-loop reporter (input ligand: arginine 13.2 mM): 124 nM | apparent KD of K4 kissing-loop reporter (input ligand: none): 131 nM | apparent KD of K4 kissing-loop reporter [1]: 114 nM | apparent KD of K4 kissing-loop reporter [2]: 124 nM

AGGUUUUGAUUAGGAUAUGCACUGACGACGAGAAUAUAGUGAUGUUAUAUACUACGAAUUAGUAGAGUAGAAGGGAUUGAGGUUU [SSFMNB.Y]
apparent KD of K4 kissing-loop reporter (input ligand: FMN 200 uM): 344 nM | apparent KD of K4 kissing-loop reporter (input ligand: arginine 13.2 mM): 265 nM | apparent KD of K4 kissing-loop reporter (input ligand: none): 330 nM | apparent KD of K4 kissing-loop reporter [1]: 322 nM | apparent KD of K4 kissing-loop reporter [2]: 245 nM

GCCUAGGCUCGAAAGAGCCUAGGCUUUACUCAGGAUAUCUGGAAACAGAGAAGGGAGCUACUAGUGAUGUUAGGAAUUCCCUAAG
apparent KD of K4 kissing-loop reporter (input ligand: FMN 200 uM): 45.9 nM | apparent KD of K4 kissing-loop reporter (input ligand: arginine 13.2 mM): 80.3 nM | apparent KD of K4 kissing-loop reporter (input ligand: none): 133 nM | apparent KD of K4 kissing-loop reporter [1]: 141 nM | apparent KD of K4 kissing-loop reporter [2]: 87.8 nM

UUCGAAAGUCGAAGGAGCGCUGUCGGUCAUAGACCAUAUCUGUAGUGAUGUUACAGAUGACAGCAGGUAGGUCGCGACAGAGACA [Arg B SS t18]
apparent KD of K4 kissing-loop reporter (input ligand: FMN 200 uM): 148 nM | apparent KD of K4 kissing-loop reporter (input ligand: arginine 13.2 mM): 120 nM | apparent KD of K4 kissing-loop reporter (input ligand: none): 127 nM | apparent KD of K4 kissing-loop reporter [1]: 144 nM | apparent KD of K4 kissing-loop reporter [2]: 144 nM

UGUUUUUACUGAAGGAGCGGCAAUUGAUACGUAGAUAUAGUGAUGUUAUAUAAGAUAGAGAGCCAGGUAGGUCGCAGAAUGUAUC [ExArgB.aC]
apparent KD of K4 kissing-loop reporter (input ligand: FMN 200 uM): 214 nM | apparent KD of K4 kissing-loop reporter (input ligand: arginine 13.2 mM): 212 nM | apparent KD of K4 kissing-loop reporter (input ligand: none): 237 nM | apparent KD of K4 kissing-loop reporter [1]: 252 nM | apparent KD of K4 kissing-loop reporter [2]: 231 nM

AAAGUUGAUGAGUUGGGUAUGUGUUCCGAAGGAGCGAGAAUUAUCUCAGGUAGGUCGCGGAAGAUGAGUGAUGUUCAUCUAUAAA [KL-XArg-A8 #analogue]
apparent KD of K4 kissing-loop reporter (input ligand: FMN 200 uM): 147 nM | apparent KD of K4 kissing-loop reporter (input ligand: arginine 13.2 mM): 137 nM | apparent KD of K4 kissing-loop reporter (input ligand: none): 162 nM | apparent KD of K4 kissing-loop reporter [1]: 144 nM | apparent KD of K4 kissing-loop reporter [2]: 127 nM

AUGGGUCCACGAAGGAGCGCCGUGCAGUGAUGUUGCAGUUAGAUCCAGUGAUGUUUGGGCCGGCAGGUAGGUCGCGUGGAUUUAU [Exclusion Arginine B GF 22]
apparent KD of K4 kissing-loop reporter (input ligand: FMN 200 uM): 249 nM | apparent KD of K4 kissing-loop reporter (input ligand: arginine 13.2 mM): 199 nM | apparent KD of K4 kissing-loop reporter (input ligand: none): 249 nM | apparent KD of K4 kissing-loop reporter [1]: 243 nM | apparent KD of K4 kissing-loop reporter [2]: 222 nM

GGGAGUAGUGCGGCCGCCACUGAGAAAGAAGAAGAAUAUAGUGAUGUUAUAUAGGAAAGGAAGAAUAGGACCGGGCAUUAGAUUU [SSTRyptB.J]
apparent KD of K4 kissing-loop reporter (input ligand: FMN 200 uM): 229 nM | apparent KD of K4 kissing-loop reporter (input ligand: arginine 13.2 mM): 173 nM | apparent KD of K4 kissing-loop reporter (input ligand: none): 263 nM | apparent KD of K4 kissing-loop reporter [1]: 238 nM | apparent KD of K4 kissing-loop reporter [2]: 257 nM

GGAGAGGUCUUGUUUGGAUGUGUUUAAUGGCGAGGACCGGUACGGCCGCCACUCGGGUGAUGUUAGUGAUGUUGAUGUAGUGAUG [wzwmullin]
apparent KD of K4 kissing-loop reporter (input ligand: FMN 200 uM): 103 nM | apparent KD of K4 kissing-loop reporter (input ligand: arginine 13.2 mM): 76.1 nM | apparent KD of K4 kissing-loop reporter (input ligand: none): 93.4 nM | apparent KD of K4 kissing-loop reporter [1]: 149 nM | apparent KD of K4 kissing-loop reporter [2]: 89.5 nM

AGAGAUAUAUGAGGAUAUGAGUUAGUUAAUGAGUUAGUUUUAGUGUUGUUUGGUUAGUGAUGUUAUUUAGAAGGCGUGAGUGAUG [cxfsmullin]
apparent KD of K4 kissing-loop reporter (input ligand: FMN 200 uM): 89.7 nM | apparent KD of K4 kissing-loop reporter (input ligand: arginine 13.2 mM): 66.4 nM | apparent KD of K4 kissing-loop reporter (input ligand: none): 67.7 nM | apparent KD of K4 kissing-loop reporter [1]: 96.9 nM | apparent KD of K4 kissing-loop reporter [2]: 60.8 nM

CGGAGUCGCGGAAGGAGCGCUCGAUAGACAAGUUGAUCGUGCCGUGGUCGAGUGAUGUUCGAGCAGGUAGGUCGCCGUCGGUCCC [Cexeatedma]
apparent KD of K4 kissing-loop reporter (input ligand: FMN 200 uM): 252 nM | apparent KD of K4 kissing-loop reporter (input ligand: arginine 13.2 mM): 204 nM | apparent KD of K4 kissing-loop reporter (input ligand: none): 242 nM | apparent KD of K4 kissing-loop reporter [1]: 229 nM | apparent KD of K4 kissing-loop reporter [2]: 230 nM

UUGGCUGGACGGGAUACCAGCCAAAUCGUGGGCUUGGGAUGUCUAAGAGCCAGUGAUGUUGGCCCUUGGCAGCCCUCCCAGCUUG [Xerirala]
apparent KD of K4 kissing-loop reporter (input ligand: FMN 200 uM): 104 nM | apparent KD of K4 kissing-loop reporter (input ligand: arginine 13.2 mM): 97.7 nM | apparent KD of K4 kissing-loop reporter (input ligand: none): 95.9 nM | apparent KD of K4 kissing-loop reporter [1]: 75.5 nM | apparent KD of K4 kissing-loop reporter [2]: 113 nM

GCUCAUCCGGCAGGAUAUAGGCAGGUAGAGUGAUGUUCGAACUGCAGUUAUCCAUCCUUCUACCUACUAGAAGGGCCGGAUGAGC
apparent KD of K4 kissing-loop reporter (input ligand: FMN 200 uM): 376 nM | apparent KD of K4 kissing-loop reporter (input ligand: arginine 13.2 mM): 214 nM | apparent KD of K4 kissing-loop reporter (input ligand: none): 209 nM | apparent KD of K4 kissing-loop reporter [1]: 188 nM | apparent KD of K4 kissing-loop reporter [2]: 292 nM

GCCGUACGCAUGGAUACCAGUUGCGAAGUGAUGUUUCGGGCGAUCAAAGGAUCGCCCAACAACCCUUGGCAGCCAUGCGUACGGC
apparent KD of K4 kissing-loop reporter (input ligand: FMN 200 uM): 216 nM | apparent KD of K4 kissing-loop reporter (input ligand: arginine 13.2 mM): 42.5 nM | apparent KD of K4 kissing-loop reporter (input ligand: none): 119 nM | apparent KD of K4 kissing-loop reporter [1]: 108 nM | apparent KD of K4 kissing-loop reporter [2]: 133 nM

UCUCAUCUCAGAAGGAGCGUGAGAGAAUAUUAGAAAUCGUCGAGUGAUGUUCGACGUCUCUCACAGGUAGGUCGCUGAGACGUCA [Arg B SS t9]
apparent KD of K4 kissing-loop reporter (input ligand: FMN 200 uM): 111 nM | apparent KD of K4 kissing-loop reporter (input ligand: arginine 13.2 mM): 107 nM | apparent KD of K4 kissing-loop reporter (input ligand: none): 97.4 nM | apparent KD of K4 kissing-loop reporter [1]: 121 nM | apparent KD of K4 kissing-loop reporter [2]: 111 nM

AAUAAAAUCACGGCCGCCACUGAUUUCCGUAUUAGGAGUGAUGUUCCUAUGACUAUAUAAUUUAACAGGACCGGGUGAAUAUUUA [#21 K4 Tryptophan B Exclusion]
apparent KD of K4 kissing-loop reporter (input ligand: FMN 200 uM): 111 nM | apparent KD of K4 kissing-loop reporter (input ligand: arginine 13.2 mM): 109 nM | apparent KD of K4 kissing-loop reporter (input ligand: none): 110 nM | apparent KD of K4 kissing-loop reporter [1]: 107 nM | apparent KD of K4 kissing-loop reporter [2]: 97.8 nM
